Laboratory results as given in the RNAGym collection of RNA variant scans (doi:10.7554/elife.80360).

B1: Hairpin Ribozyme (parent)
chain: GUCCUCUUUCACGUGCGCGUGAAAGAGAGAAGUGAACCAGAGAAACACACGUUGUGGUAUAUUACCUGGUA

Variants of: B1
Test: self-cleavage, relative activity (ratio to wild type); higher = more cleavage; co-transcriptional

First: GUCCUCUUUGACGUGCGCGUGAAAGAGAGAAGUGAACCAGAGAAACAUACGUUGUGGUAUAUUACCUGGUA
Second: GUCCUCUUUGACGUGCGCGUGAAAGAGAGAAGUGACCCAGAGAAACACACGUUGUGGUAUAUUACCUGGUA
The self-cleavage of the first is lower: 0.168 for the first, 0.498 for the second.

Compared with GUCCUCUUUGACGUCCGCGUGAAAGAGAGAAGUGAACCAGAGAAACACACGUUGUGGUAUAUUACCUGGUA, GUCCUCUUUGACGUGCGCGUGAAAGAGAGAAGUGAACCAGAGCAACACACGUUGUGGUAUAUUACCUGGUA is lower in self-cleavage: 0.962 for the first, 0.128 for the second.

Compared with GUCCUCUUUGACGUGCGCGUGAAAGAGAGAAGUGAACCAGAGUAACACACGUUGUGGUAUAUUACCUGGUA, GUCCUCUUUGACGUGCGCGUGAAAGAGAGAAGUGAACCAGAGAAACACACGUUGUGGUAUAUUACCUGCUA is higher in self-cleavage: 0.157 for the first, 0.23 for the second.

Going from GUCCUCUUUGACGUGCGCGUGAAAGAGAGAAGUGAACCAGAGAAUCACACGUUGUGGUAUAUUACCUGGUA to GUCCUCUUUGACGUGCGCGUGAAAGAGAGAAGUGAACCAGAGAAGCACACGUUGUGGUAUAUUACCUGGUA, the self-cleavage falls from 0.136 to 0.118.

First: GUCCUCUUUGACGUGCGCGUGAAAGAGAGAAGUGAACCAGAGAACCACACGUUGUGGUAUAUUACCUGGUA
Second: GUCCUCUUUGACGUGCGCGUGAAAGAGAUAAGUGAACCAGAGAAACACACGUUGUGGUAUAUUACCUGGUA
The self-cleavage of the first is lower: 0.114 for the first, 0.136 for the second.

First: GUCCUCUUUGACGUGCGCGUGAAAGAGAGAAGUGAACAAGAGAAACACACGUUGUGGUAUAUUACCUGGUA
Second: GUCCUCUUUGACGUGCGCGUGAAAGAGAGAAGUGAACCAGAGAAAGACACGUUGUGGUAUAUUACCUGGUA
The self-cleavage of the first is higher: 0.168 for the first, 0.162 for the second.

Going from GUCCUCUUUGACGUGCGCGUGAAAGAGAGAAGUGAACCAGAGAAACACACGUUGUGGUAUAUUACCUGGUU to GUCCUCUUUGACGUGCGCGUGAAAGAGAGAAGUGAACCAGAGAAACACACGUUGUGGUAUAUUACCUGGUG, the self-cleavage rises from 0.589 to 0.705.

Compared with GUCCUCUUUGACGUGCGCGUGAAAGAGAGAAGUGAACCAGAGAAACACACGUUGUGGUAGAUUACCUGGUA, GUCCUCUUUGACGUGCGCUUGAAAGAGAGAAGUGAACCAGAGAAACACACGUUGUGGUAUAUUACCUGGUA is higher in self-cleavage: 0.442 for the first, 0.507 for the second.

Compared with GUCCUCUUUGACGUGCGCAUGAAAGAGAGAAGUGAACCAGAGAAACACACGUUGUGGUAUAUUACCUGGUA, GUCCUCUUUUACGUGCGCGUGAAAGAGAGGAGUGAACCAGAGAAACACACGUUGUGGUAUAUUACCUGGUA is lower in self-cleavage: 0.64 for the first, 0.135 for the second.

Going from GUCCUCUUUUACGUGCGCGUGGAAGAGAGAAGUGAACCAGAGAAACACACGUUGUGGUAUAUUACCUGGUA to GUCCUCUUUUACGUGCGCGUGUAAGAGAGAAGUGAACCAGAGAAACACACGUUGUGGUAUAUUACCUGGUA, the self-cleavage falls from 0.635 to 0.373.

First: GUCCUCUUUGACGUGCGCGUGAAAGAGAGAAGUGAACCAGAGAAACACACGUUGUGGUAUAUUGCCUGGUA
Second: GUCCUCUUUGACGUGCGCGUGAAAGAGAGAAGUGAACCAGAGAAACACACGUUGUGGUAUAUUUCCUGGUA
The self-cleavage of the first is higher: 0.397 for the first, 0.199 for the second.

Going from GUCCUCUUUGACGUGCGCGUGAAAGAGAGAAAUGAACCAGAGAAACACACGUUGUGGUAUAUUACCUGGUA to GUCCUCUUUGACGUGCGCGUGAAAGAGAGAACUGAACCAGAGAAACACACGUUGUGGUAUAUUACCUGGUA, the self-cleavage rises from 0.163 to 0.207.

Going from GUCCUCUUUUACGUGCGCGUGACAGAGAGAAGUGAACCAGAGAAACACACGUUGUGGUAUAUUACCUGGUA to GUCCUCUUUUACGUGCGCGUGAUAGAGAGAAGUGAACCAGAGAAACACACGUUGUGGUAUAUUACCUGGUA, the self-cleavage rises from 0.637 to 0.652.

Going from GUCCUCUUUUACGUGCGCGUGAGAGAGAGAAGUGAACCAGAGAAACACACGUUGUGGUAUAUUACCUGGUA to GUCCUCUUUUACGUGCGCGUGAAAGAGAGAAGUGAACCGGAGAAACACACGUUGUGGUAUAUUACCUGGUA, the self-cleavage falls from 0.551 to 0.242.

First: GUCCUCUUUGACGUGCGCGUGAAAGAGAGAAGUGAACCAGAGAAACACACGUUGUGGUAUAUUAUCUGGUA
Second: GUCCUCUUUGACGUGCGCGAGAAAGAGAGAAGUGAACCAGAGAAACACACGUUGUGGUAUAUUACCUGGUA
The self-cleavage of the first is lower: 0.307 for the first, 0.484 for the second.

Compared with GUCCUCUUUGACGUGCGCGUGAAAGAGAGAAGUGAACCAGAGAAACACUCGUUGUGGUAUAUUACCUGGUA, GUCCUCUUUGACGUGCGCGUGAAAGAGAGAAGUGAACCAGAGAAACACCCGUUGUGGUAUAUUACCUGGUA is lower in self-cleavage: 0.21 for the first, 0.198 for the second.

Going from GUCCUCUUUGACGUGCGCGUGAGAGAGAGAAGUGAACCAGAGAAACACACGUUGUGGUAUAUUACCUGGUA to GUCCUCUUUUACGUGCGCGUGAAAGAGAGAAGUGAACCAGAGAAACACACGUUGUGGUAUAUUACCUGGUA, the self-cleavage rises from 0.419 to 0.775.

Compared with GUCCUCUUUGACGUGCGCGUGAAAGAGAGAAGUGAACCAGAGAAACACACGUUGUGGUAUAUUACCUCGUA, GUCCUCUUUUACGUGCGCGUGAAAGAGAGAAGUGAACCAGAGUAACACACGUUGUGGUAUAUUACCUGGUA is lower in self-cleavage: 0.199 for the first, 0.0631 for the second.

Going from GUCCUCUUUGACGUGCGCGUGAAUGAGAGAAGUGAACCAGAGAAACACACGUUGUGGUAUAUUACCUGGUA to GUCCUCUUUGACGUGCGCGUGAAGGAGAGAAGUGAACCAGAGAAACACACGUUGUGGUAUAUUACCUGGUA, the self-cleavage rises from 0.468 to 0.63.
